Test results from paper PMC5509884, “Dampened activity of ryanodine receptor channels in mutant skeletal muscle lacking TRIC‐A” (The Journal of Physiology, 2017).

Molecular target: the molecule itself
Experiment: SDS-PAGE immunoblot of the purified protein; anti-PA tag immunoblot of the fractions of the PA-tag column purification of recombinant TRIC-A from CHO cells (buffers with 0.1% DM); bands marked as monomer, dimer and trimer

B1: mouse TRIC-A (type A trimeric intracellular cation channel), full length, with an N-terminal PA-tag (natural protein, UniProt Q3TMP8 1-298, looked up)
chain: MDLMSALSLGELALSFSRVPLFPVFDLSYFIVSIIYLKYEPGAVELSRRHPVASWLCAMLHCFGSYILADLLLGEPIIDYFSNSSSILLASGVWYLIFFCPLDLFYKCVCFLPVKLIFVAMKEVVRVRKIAVGIHHAHHHYHHGWFIMIATGWVKGSGVALLSNVEQLLRGVWKPETNEILHMSFPTKASLYGAILFTLQQTRWLPVSKASLIFVFTMFMVSCKVFLTATHSHSSPFDILEGYICPVLFGATWGGDHHHDNHGAPHGMGLGTQHSGLPAKAKEELGEGSRKKKTKKAD
notes: TRIC-A (trimeric intracellular cation channel type A), mouse, full-length cDNA; The introduction says, citing other work, that TRIC channels are trimers of three monomers of about 30 kDa; also called purified TRIC-A; recombinant TRIC-A; not shown: PA-tag, N-terminal, kept
B1: binds.
